Data taken from PMC7495468.

Target: HKU1-A HE ectodomain (human coronavirus HKU1 haemagglutinin-esterase, type A) (human coronavirus HKU1 (type A))
Assay: […] (4 mg/ml; SEC buffer 10 mM Tris-HCl pH 8, 50 mM NaCl), […]

HKU1-A HE ectodomain (human coronavirus HKU1 haemagglutinin-esterase, type A) (domain or fragment)
stoichiometry N: 2
